# Measurements from PMC2939854 (2010).
# Target: GLP-1 receptor (Rattus norvegicus) (UniProt P32301)
# Assay: competitive cellular ELISA against GLP-1/hIgG2 (INS-1 cells)
# GLP-1 receptor (Rattus norvegicus), sequence (P32301 22-463): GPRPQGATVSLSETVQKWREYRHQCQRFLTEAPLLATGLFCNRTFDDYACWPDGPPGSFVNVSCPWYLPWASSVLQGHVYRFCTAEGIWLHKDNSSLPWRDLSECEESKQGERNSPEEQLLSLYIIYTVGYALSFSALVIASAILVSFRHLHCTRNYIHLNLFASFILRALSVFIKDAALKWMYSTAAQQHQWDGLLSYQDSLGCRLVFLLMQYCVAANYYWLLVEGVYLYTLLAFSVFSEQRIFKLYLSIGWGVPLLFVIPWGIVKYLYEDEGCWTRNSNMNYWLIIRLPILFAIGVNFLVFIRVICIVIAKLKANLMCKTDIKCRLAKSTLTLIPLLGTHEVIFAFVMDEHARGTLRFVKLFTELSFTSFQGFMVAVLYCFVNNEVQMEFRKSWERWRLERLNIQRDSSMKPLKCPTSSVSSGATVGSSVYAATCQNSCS
# Exendin-4, sequence (P26349 48-86): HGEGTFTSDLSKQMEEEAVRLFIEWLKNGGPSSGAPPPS
substance,measurement,value
Exendin-4 (from UniProt P26349),IC50,8.15 nM
